According to patent publication US20160177307:

Biological target: PDGF-BB (platelet-derived growth factor BB) (Homo sapiens) (UniProt P01127)
Assay: filter
[1] = all Z are BndU, rest DNA, SB18T, 37 C
[2] = all P are NapdU, rest DNA, SB18T, 37 C

Sequence of PDGF-BB (platelet-derived growth factor BB) (Homo sapiens) (P01127 82-190): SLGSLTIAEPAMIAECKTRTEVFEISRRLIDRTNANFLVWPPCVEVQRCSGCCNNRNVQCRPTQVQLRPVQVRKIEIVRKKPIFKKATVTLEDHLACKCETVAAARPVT

ACACGCGTTTATAGCGTCAACCCGAGTGAACA [4149-8_19]
Kd [1]: 74 nM

ACAGCATGTATGCACATCTAGAGGCTACCCAGTGAA [5169-4_14]
Kd [2]: 0.17 nM

ACTACGTTACACGCGTTTATAGCGTCAACCCGAGTGAACA [4149-8_15]
Kd (Bn-dU): > 10 nM

ATCTCTTACGACTACGTTACACGCGTTTATAGCGTC [4149-8_10]
Kd [1]: 0.05 nM

ATCTCTTACGACTACGTTACACGCGTTTATAGCGTCAA [4149-8_9]
Kd [1]: 0.03 nM

ATCTCTTACGACTACGTTACACGCGTTTATAGCGTCAACCCG [4149-8_7]
Kd [1]: 0.02 nM

ATCTCTTACGACTACGTTACACGCGTTTATAGCGTCAACCCGAGTG [4149-8_5]
Kd [1]: 0.02 nM

ATCTCTTACGACTACGTTACACGCGTTTATAGCGTCAACCCGAGTGAACA [4149-8_2]
Kd (all Z are BndU (5-(N-benzylcarboxamide)-2'-deoxyuridine), rest DNA, SB18T, 37 C, Zorbax partition): 0.05 nM

CACAGCATGTATGCACATCT [5169-4_60]
Kd (C3 spacer at 2, NapdU at 9,11,13,19,21, C3 spacer walk): 27 nM

CAGCATGTATGCACATCTAGAGGCTACCCAGTGAATGAGGA [5169-4_6]
Kd [2]: 67 nM

CCTCGACAGCATGTATGCACATCTAGAGGCTACCCAGTGAATGAGGA [5169-4_4]
Kd (NapdU at P, SB18T, 37 C): 0.027 nM

CGAAGCATGTATGCACATCT [5169-4_62]
Kd (C3 spacer at 4, NapdU at 9,11,13,19,21, C3 spacer walk): 42 nM

CGACACATGTATGCACATCT [5169-4_64]
Kd (C3 spacer at 6, NapdU at 9,11,13,19,21, C3 spacer walk): 0.054 nM

CGACAGATGTATGCACATCT [5169-4_65]
Kd (NapdU at P, C3 spacer at 7): 0.074 nM

CGACAGCATGTATCACATCT [5169-4_72]
Kd (C3 spacer at 14, NapdU at 9,11,13,19,21, C3 spacer walk): 230 nM

CGACAGCATGTATGACATCT [5169-4_73]
Kd (C3 spacer at 15, NapdU at 9,11,13,19,21, C3 spacer walk): 0.015 nM

CGACAGCATGTATGCAATCT [5169-4_75]
Kd (NapdU at P, C3 spacer at 17): 0.14 nM

CGACAGCATGTATGCACATCT [5169-4_33]
Kd (NapdU at P, 2'-OMe 1): 0.027 nM

CGACAGCATGTATGCACATCT [5169-4_34]
Kd (NapdU at P, 2'-OMe 4): 0.033 nM

CGACAGCATGTATGCACATCT [5169-4_35]
Kd (NapdU at P, 2'-OMe 7): 0.016 nM

CGACAGCATGTATGCACATCT [5169-4_36]
Kd (NapdU at P, 2'-OMe 15): 0.028 nM

CGACAGCATGTATGCACATCT [5169-4_37]
Kd (NapdU at P, 2'-OMe 17): 0.041 nM

CGACAGCATGTATGCACATCT [5169-4_38]
Kd (NapdU at P, 2'-OMe 20): 0.022 nM

CGACAGCATGTATGCACATCT [5169-4_39]
Kd (NapdU at P, 2'-OMe 2): 0.058 nM

CGACAGCATGTATGCACATCT [5169-4_40]
Kd (NapdU at P, 2'-OMe 6): 0.024 nM

CGACAGCATGTATGCACATCT [5169-4_41]
Kd (NapdU at P, 2'-OMe 10): 0.097 nM

CGACAGCATGTATGCACATCT [5169-4_42]
Kd (2'-OMe G14, NapdU at 9,11,13,19,21, 2'-OMe substitution): 0.0069 nM

CGACAGCATGTATGCACATCT [5169-4_43]
Kd (NapdU at P, 2'-OMe 3): 0.16 nM

CGACAGCATGTATGCACATCT [5169-4_44]
Kd (2'-OMe A5, NapdU at 9,11,13,19,21, 2'-OMe substitution): 0.53 nM

CGACAGCATGTATGCACATCT [5169-4_45]
Kd (2'-OMe A8, NapdU at 9,11,13,19,21, 2'-OMe substitution): 0.93 nM

CGACAGCATGTATGCACATCT [5169-4_46]
Kd (NapdU at P, 2'-OMe 12): 0.093 nM

CGACAGCATGTATGCACATCT [5169-4_47]
Kd (NapdU at P, 2'-OMe 16): 0.016 nM

CGACAGCATGTATGCACATCT [5169-4_48]
Kd (NapdU at P, 2'-OMe 18): 0.014 nM

CGACAGCATGTATGCACATCT [5169-4_49]
Kd (NapdU at P, 2'-OMe 9): 0.53 nM

CGACAGCATGTATGCACATCT [5169-4_50]
Kd (NapdU at P, 2'-OMe 11): 0.047 nM

CGACAGCATGTATGCACATCT [5169-4_51]
Kd (NapdU at P, 2'-OMe 13): 0.32 nM

CGACAGCATGTATGCACATCT [5169-4_52]
Kd (NapdU at P, 2'-OMe 19): 0.31 nM

CGACAGCATGTATGCACATCT [5169-4_53]
Kd (NapdU at P, 2'-OMe 21): 0.022 nM

CGACAGCATGTATGCACATCT [5169-4_54]
Kd (NapdU at 11,13,19,21, dT at 9, dT substitution): 44 nM

CGACAGCATGTATGCACATCT [5169-4_55]
Kd (NapdU at 9,13,19,21, dT at 11, dT substitution): 7.8 nM

CGACAGCATGTATGCACATCT [5169-4_57]
Kd (NapdU at 9,11,13,21, dT at 19, dT substitution): 120 nM

CGACAGCATGTATGCACATCT [5169-4_80]
Kd (NapdU at P, 2'-OMe 7,16,18): 0.0061 nM

CGACAGCATGTATGCACATCT [5169-4_81]
Kd (NapdU at P, 2'-OMe 7,14,16,18): 0.0049 nM

CGACAGCATGTATGCACATCT [5169-4_82]
Kd (NapdU at 9,11,13,19, 2'-OMe at G6,C7,G14,A16,A18,C20 and 2'-OMe-NapU21, SB18T, 37 C): 0.0016 nM

CGACAGCATGTATGCACATCT [5169-4_83]
Kd (NapdU at P, 2'-OMe 1,6,7,14,15,16,18,20,21): 0.0021 nM

CGACAGCATGTATGCACATCT [5169-4_86]
Kd (NapdU at P, 2'-OMe 1,2,4,6,7,11,14-18,20,21): 0.064 nM

CGACAGCATGTATGCACATCT [5169-4_92]
Kd (NapdU at P, 2'-OMe 1,7,15,16,18,20,21): 0.0052 nM

CGACAGCATGTATGCACATCT [5169-4_105]
Kd (NapdU at P, 2'-OMe 6,18,20): 0.0061 nM

CGACAGCATGTATGCACATCT [5169-4_106]
Kd (NapdU at P, 2'-OMe 1,18,20): 0.016 nM

CGACAGCATGTATGCACATCT [5169-4_107]
Kd (NapdU at P, 2'-OMe 1,6,18): 0.013 nM

CGACAGCATGTATGCACATCT [5169-4_108]
Kd (NapdU at P, 2'-OMe 1,6,14): 0.012 nM

CGACAGCATGTATGCACATCT [5169-4_109]
Kd (NapdU at P, 2'-OMe 1,6,16): 0.011 nM

CGACAGCATGTATGCACATCT [5169-4_110]
Kd (NapdU at P, 2'-OMe 1,14,16): 0.005 nM

CGACAGCATGTATGCACATCT [5169-4_111]
Kd (NapdU at P, 2'-OMe 7,14,16): 0.0048 nM

CGACAGCATGTATGCACATCT [5169-4_113]
Kd (NapdU at P, 2'-OMe 7,16,21): 0.012 nM

CGACAGCATGTATGCACATCT [5169-4_114]
Kd (NapdU at P, 2'-OMe 7,17,21): 0.038 nM

CGACAGCATGTATGCACATCT [5169-4_115]
Kd (NapdU at P, 2'-OMe 4,7,21): 0.024 nM

CGACAGCATGTATGCACATCT [5169-4_116]
Kd (NapdU at P, 2'-OMe 4,17,21): 0.093 nM

CGACAGCATGTATGCACATCT [5169-4_117]
Kd (NapdU at P, 2'-OMe 4,12,17): 0.71 nM

CGACAGCATGTATGCACATCT [5169-4_118]
Kd (NapdU at P, 2'-OMe 2,4,17): 0.56 nM

CGACAGCATGTATGCACATCT [5169-4_123]
Kd (NapdU at P, 2'-OMe 1,20,21): 0.03 nM

CGACAGCATGTATGCACATCT [5169-4_124]
Kd (NapdU at P, 2'-OMe 5,20,21): 0.6 nM

CGACAGCATGTATGCACATCT [5169-4_125]
Kd (NapdU at P, 2'-OMe 1,5,20): 1 nM

CGACAGCATGTATGCACATCT [5169-4_127]
Kd (NapdU at P, 2'-OMe 16,17,18): 0.01 nM

CGACAGCATGTATGCACATCT [5169-4_128]
Kd (NapdU at P, 2'-OMe 13,14,15): 0.099 nM

CGACAGCATGTATGCACATCT [5169-4_130]
Kd (NapdU at P, 2'-OMe 7,8,9): 4.5 nM

CGACAGCATGTATGCACATCT [5169-4_131]
Kd (NapdU at P, 2'-OMe 4,5,6): 0.64 nM

CGACAGCATGTATGCACATCT [5169-4_132]
Kd (NapdU at P, 2'-OMe 1,2,3): 0.42 nM

CGACAGCATGTATGCACATCT [5169-4_150]
Kd (as 5169-4_146, PS 2, 3' inverted dT): 0.013 nM

CGACAGCATGTATGCACATCT [5169-4_151]
Kd (as 5169-4_146 plus PS 3' of A3, 3'-idT): 0.006 nM

CGACAGCATGTATGCACATCT [5169-4_152]
Kd (as 5169-4_146, PS 5, 3' inverted dT): 0.015 nM

CGACAGCATGTATGCACATCT [5169-4_153]
Kd (as 5169-4_146, PS 8, 3' inverted dT): 0.013 nM

CGACAGCATGTATGCACATCT [5169-4_154]
Kd (as 5169-4_146 plus PS 3' of P9, 3'-idT, 1.8-fold weaker than parent): 0.026 nM

CGACAGCATGTATGCACATCT [5169-4_155]
Kd (as 5169-4_146, PS 10, 3' inverted dT): 0.0069 nM

CGACAGCATGTATGCACATCT [5169-4_156]
Kd (as 5169-4_146, PS 11, 3' inverted dT): 0.0078 nM

CGACAGCATGTATGCACATCT [5169-4_157]
Kd (as 5169-4_146, PS 12, 3' inverted dT): 0.018 nM

CGACAGCATGTATGCACATCT [5169-4_158]
Kd (as 5169-4_146, PS 13, 3' inverted dT): 0.019 nM

CGACAGCATGTATGCACATCT [5169-4_159]
Kd (as 5169-4_146, PS 19, 3' inverted dT): 0.015 nM

CGACAGCATGTATGCACATCT [5169-4_172]
Kd (as 5169-4_146, PS 1, 3' inverted dT): 0.013 nM

CGACAGCATGTATGCACATCT [5169-4_173]
Kd (as 5169-4_146, PS 4, 3' inverted dT): 0.0091 nM

CGACAGCATGTATGCACATCT [5169-4_175]
Kd (as 5169-4_146, PS 15, 3' inverted dT): 0.0069 nM

CGACAGCATGTATGCACATCT [5169-4_176]
Kd (as 5169-4_146, PS 17, 3' inverted dT): 0.014 nM

CGACAGCATGTATGCACATCT [5169-4_177]
Kd (as 5169-4_146, PS 20, 3' inverted dT): 0.0072 nM

CGACAGCATGTATGCACATCT [5169-4_178]
Kd (as 5169-4_146, PS 6, 3' inverted dT): 0.011 nM

CGACAGCATGTATGCACATCT [5169-4_179]
Kd (as 5169-4_146, PS 14, 3' inverted dT): 0.0077 nM

CGACAGCATGTATGCACATCT [5169-4_180]
Kd (as 5169-4_146, PS 16, 3' inverted dT): 0.02 nM

CGACAGCATGTATGCACATCT [5169-4_181]
Kd (as 5169-4_146, PS 18, 3' inverted dT): 0.021 nM

CGACAGCATGTATGCACATCT [5169-4_182]
Kd (as 5169-4_146 plus PS 3' of 9,10,11,12, 3'-idT): 0.039 nM

CGACAGCATGTATGCACATCTA [5169-4_25]
Kd (NapdU at P): 0.02 nM
